# Measured values from the RNAGym collection of RNA variant scans (doi:10.1073/pnas.2313332121).
# This sample holds only a part of the variants without activity.
# B1: TPR 5TU (parent)
# chain: GGAUCUUCUCGAUCUAACAAAAAAGACAAAUCUGCCACAAAGCUUGAGAGCAUCUUCGGAUGCAGAGGCGGCAGCCUUCGGUGGCGCGAUAGCGCCAACGUUCUCAACUAUGACACGCAAAACGCGUGCUCCGUUGAAUGGAGUUUAUCAUG
# Variants of: B1
# Assay: polymerase ribozyme fitness, log enrichment relative to wild type (log ratio); higher = more active; in vitro selection for triplet polymerase activity
# Summary of the method: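 Mutant libraries were PCR-built and transcribed for each subunit of a heterodimeric triplet polymerase ribozyme and selected for one round in triplicate at −7 °C, frozen, before gel excision of extended constructs and streptavidin-bead capture. Input and output libraries were Illumina-sequenced, keeping genotypes with ≥10 input reads and ≥1 read per output. Fitness is a logarithmic ratio of genotype to wild-type enrichment, in base 2, using inverse-variance-weighted replicate averages.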
row,Variant,polymerase ribozyme fitness (log ratio)
1,GGAUCUUCUCGAUCUAACAAAAAAGACAAAUCUGCCACAAAGCUUGAGAGCCUCUUUGGAUGAAGAGGCGGGAGCCAUCGGUGGAGCGAUAGCGCCAACGUUCUCAUCUAUGACACGCAAAUCGCGUGCUCCGUUCAAUGGAGUUUAACAUG,≤ -4.2
2,GGCUCUUCUGGAUCUAACAAAAAAGACAUAUCGGCCAUAAAGCUUGAGAGCAUCUUCGGAUGUAGAGGCGGCAGCCUUCGGUGGCGCGAUAGCGCCAACGUUCUCAACUAUGACACGCAAAACGCGUGCUCCGUUGAAUGGAGUUUAUCAUG,≤ -4.2
3,GGAUCUUCUCGAUCUAACAAAAAAGACAAAUCUGCCACAAAGCUUGAGAGCAUCUUCGGAUGCAGAGGCGGCAGCCUUCGGUGGCGCGAUGGCGCCAACGUUCUCAAUUAUGACACGCAAAACGCGUGCUCCGUUGAAUGGAGUUUAUCAUG,-3.97
4,GGAUCUUCUGGAUCUAACAAAAAAGACAAAUCUGCCACAAAGCUUAAGAGCAUCAUCGGAUGCAAAGGCGGCGGCCUUCGGUGGCGCGAUAGCGCCAACGUUCUCAACUAUGACACGCAAAACGCGUGCUCCGAUGAAUGGAGUUUAUCAUG,≤ -4.2
5,GGAUCUUCUCGAUCUAACGAAAAAGACAAAUCUGCCACAAAGCUUGAGAGCAUCUUUGGAUGCAGAUGCGGCAGCCUUCGGUGGCGCGAUAGCACCAACGUUCUAAACUAUGACACGCAAAACGCGUGCUCCGUUGAAUGGAGUUUAUCAUG,≤ -4.2
6,GGAUCUUCUCGAUCUAACAAAAAAGACAAAUCUACCACAAAGCUUGAGAGCAUCUUCGGAUGCAGAGGCGGCAGCCUUCGGUGGCGCGAUAGCGCCAACGUUCUCAACUACGCCACGCAAAACUCGUGCUCCGUUGAAUGGAGUUUAUCAUU,≤ -4.2
7,GGAUCUUCUCGAUCUAACAAAAAAGACAAAUCUGCCACAAAGCUUGAGAGCAUCUUCGGAUGCAGAGGCGGCAGCCUUCGGUGACGCGAUAGCGCCAACGUUCUCAACUAUGACACGCAAAACGCGUGCUCCGUUGAAUGGGGUUUAUCAUG,-1.82
8,GGAUCUUCUCGAUCUAACAAAAAAGACAAAUCUGCCACAAAGCUUGAGAGCAUCUUCCGAUGUAGAGGCGGCAGCCUUCGGUGGCGCGAUAGCGCCAACGUGCUCUACUAUGACACGCAAAACGCAUGCUCAGUUGAAUGGAGUUUAUCAUG,≤ -4.2
9,GGAUCUUCUCGAUCGAACAAAAAAGACAAAUCUGCCACGAAGCUUGAGAGCAACUUCGGAUGCAGAGGCGGCAGCCUUCGGUGGCGCGAUAGCGCCAACGUUCUCAACUAUGACACGCAAAACGCGUGCUCCGUUGAAUGGAGUUUAUCAUG,-4.01
10,GGAUCUUCUCGAUCUAACAAAAAAGACAAAUCUGCCUCAAAGCUUGAGAGCAUCUUCGGAUGCAGAGGCGGCAGCCUUCGGUGGCGCGAUAGCGCCAACGUUCUCAACUAUGACACGCAAAACGCGUGCUCCGUUGAAUGGAGUUUAUCAUG,-1.11
11,GGUUCUUCUCGAUCUAACAAAAAAGACAAAUCUGCCACAAAGCUUGCGAGCAUCUUCGGAUGCAGAGGCGGCAGCCUUCGGUGGCGCGAUAGUGCCAACGUUCUCAACUAUGACACGUAAAACGCGUGCUCCGUUGAAUGGAGUUUAUCAUG,-2.05
12,GGAUCUUCUCGAUCUAACAAAAAAGACAAAUCUGCCACAAAGCUUGAGACCAUCUUCGGAUGCAGAGGCGGCAGCCUUCGGUGGCGCGAUAGCGCGAACGUUCUCAACUAUGACACGCAAAACGCGUGCUCCGUUGAAUGGAGCUUAUCAUG,≤ -4.2
13,GGAUCUUCUCGAUCUAACAAAAAAGACAAAUCUGCCACAAAGCUUGAGAGCAUCUUCGGAUGCAGAGGCGGCAGCCUUCGGUGGCGCGAUAGCCCCUACGUUCUCAACUAUGACACGCAAAACGCGUGCUCCGUUCAAUGGAGUUUAUCAUG,-3.35
14,GGAUCUUCUCGAUCUAACAAAAAAGUCAAAUGUGCCACAAAGCUUGAGAGCAUCUUCGGAUGCAGAGGCGGCAGCCUUCGGUGGCACGAUAGCGCCAACGUUCUUAACUAUGACACGCAAAACGCGUGCUCCGUUGAAUGGAGUUUAUCAUG,≤ -4.2
15,GGAUCUUCUGGAUCUAACAAAAAAGAUAAAUCUGCCACAAAGCUUGAGAGCAUCUUCGGAAGCAGAGGCGGCAGCCUUCGGUGGCGCGAUAGCGCCAAAGUUCUCAACUAUGACACGCAAAACGCGUGCUCCGUUGAAUGGAGUUUAUCAUG,≤ -4.2
16,GGAUCUUCUCGAUCUAACAAAAAACACAAAUCUGCCACAAAGCUUGAGAGCAUCUUCGGAUGCAGAGGCGGCAGCCUUCGGUGGCACGAUAGCGCCAACGUUCUCAACUAUGACACGCAAAUCGCGUGCUCCGUUGAAUGGAGUUUAUCAUG,≤ -4.2
17,GGAUCUUCUCGAUCUAACAAUAAAGUCAAAUCUGCCACAAAGCUUGAGAGCAUCUUUGGAUGCAGAGGCGGCAGCCUUCGGUGUCGCGAUAGCGCCAACGUUCUCAACUAUGACACGCAAAACGCGUGCUCCGUUGAAUGGAGUUUAUCAUG,-3.6
18,GGAUCUUCUCGAUCUAACUAAAAAGUCAAAUCUGCCACAAAGCUUAAGAGCAUCUUCGGAUGCAGAGGCGGCAGCCUUCGGUGGCGAGAUUGCACCAACGUUCUCAACUAUGACACGCAAAACGCGCGCUCCGUUGAAUGGACUUUAUCAUG,≤ -4.2
19,GGAUCUUCUCGAUCUAACAAAAAAGACAAAUCUGCCACAAAGCGUGAGAGCAUCUUCGGAUGCAGAGGCGGCAGCCUUCGGUGGCGCGUUAGCGCCAACGUUCUCAACUAUGACACGCAAAACGCGUGCUCCGUUGAAUGGAGCUUAUCAUG,≤ -4.2
